Legend:
[1] = biological target: h12H4 light chain P95Gz mutant; assay: competitive ELISA; row P95Gz (light chain CDR3 mutant of h12H4); reference wt h12H4
[2] = biological target: h12H4 heavy chain P52bG mutant; assay: competitive ELISA; row P52bG (heavy chain CDR2 mutant of h12H4); reference wt h12H4
[3] = biological target: h12H4 heavy chain Y52aF mutant; assay: competitive ELISA; row Y52aF (heavy chain CDR2 mutant of h12H4); reference wt h12H4
Sequence of h12H4 heavy chain Y52aF mutant (VH, as listed by the source limits assumed, chain 1 of 2): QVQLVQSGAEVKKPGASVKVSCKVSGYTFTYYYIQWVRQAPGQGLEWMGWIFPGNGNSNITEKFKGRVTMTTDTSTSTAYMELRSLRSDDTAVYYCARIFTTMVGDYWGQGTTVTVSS
Sequence of h12H4 heavy chain Y52aF mutant (VL, as listed by the source limits assumed, chain 2 of 2): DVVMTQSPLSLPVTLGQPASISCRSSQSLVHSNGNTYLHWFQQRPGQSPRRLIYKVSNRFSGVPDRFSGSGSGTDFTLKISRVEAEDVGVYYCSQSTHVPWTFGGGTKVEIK

Sequence of h12H4 heavy chain P52bG mutant (VH, as listed by the source limits assumed, chain 1 of 2): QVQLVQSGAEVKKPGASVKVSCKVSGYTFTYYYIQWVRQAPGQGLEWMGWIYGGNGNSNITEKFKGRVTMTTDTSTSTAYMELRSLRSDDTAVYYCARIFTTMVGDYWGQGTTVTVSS
Sequence of h12H4 heavy chain P52bG mutant (VL, as listed by the source limits assumed, chain 2 of 2): as the sequence (VL, as listed by the source limits assumed, chain 2 of 2) above
Sequence of h12H4 light chain P95Gz mutant (VH, as listed by the source, chain 1 of 2): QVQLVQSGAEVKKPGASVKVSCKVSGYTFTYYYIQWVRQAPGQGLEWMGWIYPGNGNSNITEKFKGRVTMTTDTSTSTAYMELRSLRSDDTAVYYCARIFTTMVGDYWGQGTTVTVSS
Sequence of h12H4 light chain P95Gz mutant (VL, as listed by the source, chain 2 of 2): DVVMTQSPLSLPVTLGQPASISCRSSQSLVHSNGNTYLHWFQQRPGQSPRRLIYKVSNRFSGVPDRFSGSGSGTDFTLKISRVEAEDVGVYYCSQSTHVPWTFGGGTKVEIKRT

IC50 ratio (mutant/wt) (ratio (mutant/wt)) [1]: 1.5 | IC50 ratio (mutant/wt) (ratio (mutant/wt)) [2]: 1 | IC50 ratio (mutant/wt) (ratio (mutant/wt)) [3]: 1.4
Binder: SVNVDKQPKYEYSL [peptide … (hCE3C peptide, without the N-terminal Cys)]
